Assay results taken from patent US20240392004A1 (IMMUNOWAKE, published 2024).
Changes are numbered by the printed parent chain. Names and notes keep the numbering of the source.

Assays:
Assay in all cases: cell-based or functional assay
[1] = biological target: human PD-1 on cells (HEK-PD-1 reporter cells; activated PBMC) (human, UniProt Q15116 25-288)
[2] = biological target: human IL-12 receptor complex (IL-12Rβ1 and IL-12Rβ2) (human, UniProt P42701 24-662; Q99665 24-862)
[3] = biological target: T1, human IL-2 receptor (IL-2Rα, IL-2Rβ, IL-2Rγ) (human, UniProt P01589 22-272; P14784 27-551; P31785 23-369)
T1 sequence (looked up) 1: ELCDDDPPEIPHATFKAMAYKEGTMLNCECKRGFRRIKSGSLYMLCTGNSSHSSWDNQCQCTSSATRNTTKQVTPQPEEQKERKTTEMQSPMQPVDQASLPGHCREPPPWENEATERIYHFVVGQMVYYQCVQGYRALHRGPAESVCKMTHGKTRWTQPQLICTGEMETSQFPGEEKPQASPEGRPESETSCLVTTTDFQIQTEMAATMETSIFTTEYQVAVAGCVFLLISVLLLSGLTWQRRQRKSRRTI
T1 sequence (looked up) 2: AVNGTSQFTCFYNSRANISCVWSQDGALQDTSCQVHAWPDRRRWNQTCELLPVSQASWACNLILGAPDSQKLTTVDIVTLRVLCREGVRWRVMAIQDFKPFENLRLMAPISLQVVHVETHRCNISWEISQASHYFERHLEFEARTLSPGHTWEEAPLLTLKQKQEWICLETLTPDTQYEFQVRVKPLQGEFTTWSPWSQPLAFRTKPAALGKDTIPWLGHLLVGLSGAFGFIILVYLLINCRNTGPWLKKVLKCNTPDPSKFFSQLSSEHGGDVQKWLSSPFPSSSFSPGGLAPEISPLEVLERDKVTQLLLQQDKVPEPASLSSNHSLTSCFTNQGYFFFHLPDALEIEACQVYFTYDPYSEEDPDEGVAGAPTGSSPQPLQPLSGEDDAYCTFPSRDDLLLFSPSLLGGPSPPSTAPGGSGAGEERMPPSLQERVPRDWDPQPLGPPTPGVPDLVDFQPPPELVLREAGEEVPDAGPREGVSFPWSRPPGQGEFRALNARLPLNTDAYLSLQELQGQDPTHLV
T1 sequence (looked up) 3: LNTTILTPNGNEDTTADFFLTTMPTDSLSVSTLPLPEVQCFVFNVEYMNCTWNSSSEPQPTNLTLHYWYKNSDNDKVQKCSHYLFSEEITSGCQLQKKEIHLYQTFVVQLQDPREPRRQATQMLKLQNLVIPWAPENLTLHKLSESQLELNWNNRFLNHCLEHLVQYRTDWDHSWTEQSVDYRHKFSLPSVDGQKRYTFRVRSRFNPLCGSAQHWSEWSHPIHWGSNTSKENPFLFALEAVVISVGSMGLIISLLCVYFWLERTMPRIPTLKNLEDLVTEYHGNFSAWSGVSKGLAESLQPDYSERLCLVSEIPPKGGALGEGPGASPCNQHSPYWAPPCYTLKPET

human PD-1 on cells (HEK-PD-1 reporter cells; activated PBMC), sequence (Q15116 25-288): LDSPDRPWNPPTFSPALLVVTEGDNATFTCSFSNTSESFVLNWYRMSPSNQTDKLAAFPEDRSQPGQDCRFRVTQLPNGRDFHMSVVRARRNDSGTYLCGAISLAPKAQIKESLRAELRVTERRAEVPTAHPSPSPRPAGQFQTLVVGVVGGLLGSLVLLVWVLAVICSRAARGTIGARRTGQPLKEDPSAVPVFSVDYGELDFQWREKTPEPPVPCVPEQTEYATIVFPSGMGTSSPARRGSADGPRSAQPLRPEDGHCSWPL
human IL-12 receptor complex (IL-12Rβ1 and IL-12Rβ2), sequence (Q99665 24-862, chain 2 of 2, other chains not shown): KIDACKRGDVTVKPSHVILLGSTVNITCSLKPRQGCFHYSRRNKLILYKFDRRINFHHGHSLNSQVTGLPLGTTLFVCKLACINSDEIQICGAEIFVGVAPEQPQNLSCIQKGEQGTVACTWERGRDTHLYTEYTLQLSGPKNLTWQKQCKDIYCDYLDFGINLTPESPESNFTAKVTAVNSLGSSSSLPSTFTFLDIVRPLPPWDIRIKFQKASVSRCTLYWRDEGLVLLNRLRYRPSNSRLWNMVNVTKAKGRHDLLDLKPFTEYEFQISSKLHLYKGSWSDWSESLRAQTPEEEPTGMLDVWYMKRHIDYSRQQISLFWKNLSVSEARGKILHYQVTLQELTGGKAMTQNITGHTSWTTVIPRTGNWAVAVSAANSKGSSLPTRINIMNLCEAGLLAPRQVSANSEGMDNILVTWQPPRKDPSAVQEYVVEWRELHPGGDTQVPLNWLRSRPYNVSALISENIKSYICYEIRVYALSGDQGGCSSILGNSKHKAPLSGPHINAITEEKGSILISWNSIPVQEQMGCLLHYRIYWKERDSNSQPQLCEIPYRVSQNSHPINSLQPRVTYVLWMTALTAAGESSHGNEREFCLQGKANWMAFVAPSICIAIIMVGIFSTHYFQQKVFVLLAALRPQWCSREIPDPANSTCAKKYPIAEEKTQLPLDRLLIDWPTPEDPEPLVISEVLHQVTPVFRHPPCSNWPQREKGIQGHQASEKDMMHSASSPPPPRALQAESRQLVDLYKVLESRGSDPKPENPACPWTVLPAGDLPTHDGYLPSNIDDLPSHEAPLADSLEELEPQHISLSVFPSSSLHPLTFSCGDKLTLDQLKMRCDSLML

B1: IL-2(L18R/Q22E/R38D/K43E/E61R)/IL-12(E59A/F60A)/PD-L1(mut2)-Fc (Fc fusion)
chain 1: FTVTVPKDLYVVEYGSNMTIECKFPVEKQLDLAALQVYWMMEDKNIIQFVHGEEDLKVQHSSYRQRARLLKDQLSLGNAALQITDVKLQDAGVYTCLIAYKGADYKRITVKVNAPYNKINQRILVVDPVTSEHELTCQAEGYPKAEVIWTSSDHQVLSGKTTTTNSKREEKLFNVTSTLRINTTTNEIFYCTFRRLDPEENHTAELVIPELPLAHPPNERGGGGSGGGIWELKKDVYVVELDWYPDAPGEMVVLTCDTPEEDGITWTLDQSSEVLGSGKTLTIQVKAAGDAGQYTCHKGGEVLSHSLLLLHKKEDGIWSTDILKDQKEPKNKTFLRCEAKNYSGRFTCWWLTTISTDLTFSVKSSRGSSDPQGVTCGAATLSAERVRGDNKEYEYSVECQEDSACPAAEESLPIEVMVDAVHKLKYENYTSSFFIRDIIKPDPPKNLQLKPLKNSRQVEVSWEYPDTWSTPHSYFSLTFCVQVQGKSKREKKDRVFTDKTSATVICRKNASISVRAQDRYYSSSWSEWASVPCSGGGGSGGGSGGGGSRNLPVATPDPGMFPCLHHSQNLLRAVSNMLQKARQTLEFYPCTSEEIDHEDITKDKTSTVEACLPLELTKNESCLNSRETSFITNGSCLASRKTSFMMALCLSSIYEDLKMYQVEFKTMNAKLLMDPKRQIFLDQNMLAVIDELMQALNFNSETVPQKSSLEEPDFYKTKIKLCILLHAFRIRAVTIDRVMSYLNASGGGGSGGGDKTHTCPPCPAPEDEGGPSVFLFPPKPKDTLMISRTPEVTCVVVDVSHEDPEVKFNWYVDGVEVHNAKTKPREEQYNSTYRVVSVLTVLHQDWLNGKEYKCKVSNKALPAPIEKTISKAKGQPREPQVYVYPPSREEMTKNQVSLTCLVKGFYPSDIAVEWESNGQPENNYKTTPPVLDEDGSFALVSKLTVDKSRWQQGNVFSCSVMHEALHNHYTQKSLSLSPGK
chain 2: FTVTVPKDLYVVEYGSNMTIECKFPVEKQLDLAALQVYWMMEDKNIIQFVHGEEDLKVQHSSYRQRARLLKDQLSLGNAALQITDVKLQDAGVYTCLIAYKGADYKRITVKVNAPYNKINQRILVVDPVTSEHELTCQAEGYPKAEVIWTSSDHQVLSGKTTTTNSKREEKLFNVTSTLRINTTTNEIFYCTFRRLDPEENHTAELVIPELPLAHPPNERGGGSGAPTSSSTKKTQLQLEHLRLDLEMILNGINNYKNPKLTDMLTFEFYMPKKATELKHLQCLERELKPLEEVLNLAQSKNFHLRPRDLISNINVIVLELKGSETTFMCEYADETATIVEFLNRWITFCQSIISTLTGGGGSGGGDKTHTCPPCPAPEKKGGPSVFLFPPKPKDTLMISRTPEVTCVVVDVSHEDPEVKFNWYVDGVEVHNAKTKPREEQYNSTYRVVSVLTVLHQDWLNGKEYKCKVSNKALPAPIEKTISKAKGQPREPQVYVLPPSREEMTKNQVSLLCLVKGFYPSDIAVEWESNGQPENRYMTWPPVLDSDGSFFLYSKLTVDKSRWQQGNVFSCSVMHEALHNHYTQKSLSLSPGK
[1]
  IL-2 signal transduction, HEK-IL-2-PD-1: 35%
  IL-12 signal transduction, HEK-IL-12-PD-1: 19%
[2]
  IL-12 signal transduction, HEK-IL-12: < 0.2%
[3]
  IL-2 signal transduction, HEK-IL-2: 4%

B2: IL-2(R38D/K43E/E61R/Q126T)/IL-12(E59A/F60A)/PD-L1(mut2)-Fc (Fc fusion)
chain 1: B1 chain 1
chain 2: B1 chain 2 with R243L, E247Q, Q351T
[1]
  IL-2 signal transduction, HEK-IL-2-PD-1: 20%
  IL-12 signal transduction, HEK-IL-12-PD-1: 25%
[2]
  IL-12 signal transduction, HEK-IL-12: < 0.2%
[3]
  IL-2 signal transduction, HEK-IL-2: 2%

B3: IL-2(R38D/K43E/E61R/Q126T)/PD-L1(mut2)-Fc/IL-12(E59A/F60A) (Fc fusion)
chain 1: FTVTVPKDLYVVEYGSNMTIECKFPVEKQLDLAALQVYWMMEDKNIIQFVHGEEDLKVQHSSYRQRARLLKDQLSLGNAALQITDVKLQDAGVYTCLIAYKGADYKRITVKVNAPYNKINQRILVVDPVTSEHELTCQAEGYPKAEVIWTSSDHQVLSGKTTTTNSKREEKLFNVTSTLRINTTTNEIFYCTFRRLDPEENHTAELVIPELPLAHPPNERGGGGSGGGDKTHTCPPCPAPEDEGGPSVFLFPPKPKDTLMISRTPEVTCVVVDVSHEDPEVKFNWYVDGVEVHNAKTKPREEQYNSTYRVVSVLTVLHQDWLNGKEYKCKVSNKALPAPIEKTISKAKGQPREPQVYVYPPSREEMTKNQVSLTCLVKGFYPSDIAVEWESNGQPENNYKTTPPVLDEDGSFALVSKLTVDKSRWQQGNVFSCSVMHEALHNHYTQKSLSLSPGKGGGGSGGGIWELKKDVYVVELDWYPDAPGEMVVLTCDTPEEDGITWTLDQSSEVLGSGKTLTIQVKAAGDAGQYTCHKGGEVLSHSLLLLHKKEDGIWSTDILKDQKEPKNKTFLRCEAKNYSGRFTCWWLTTISTDLTFSVKSSRGSSDPQGVTCGAATLSAERVRGDNKEYEYSVECQEDSACPAAEESLPIEVMVDAVHKLKYENYTSSFFIRDIIKPDPPKNLQLKPLKNSRQVEVSWEYPDTWSTPHSYFSLTFCVQVQGKSKREKKDRVFTDKTSATVICRKNASISVRAQDRYYSSSWSEWASVPCSGGGGSGGGSGGGGSRNLPVATPDPGMFPCLHHSQNLLRAVSNMLQKARQTLEFYPCTSEEIDHEDITKDKTSTVEACLPLELTKNESCLNSRETSFITNGSCLASRKTSFMMALCLSSIYEDLKMYQVEFKTMNAKLLMDPKRQIFLDQNMLAVIDELMQALNFNSETVPQKSSLEEPDFYKTKIKLCILLHAFRIRAVTIDRVMSYLNAS
chain 2: B1 chain 2 with R243L, E247Q, Q351T
[1]
  IL-2 signal transduction, HEK-IL-2-PD-1: 31%
  IL-12 signal transduction, HEK-IL-12-PD-1: 30%
[2]
  IL-12 signal transduction, HEK-IL-12: 1%
[3]
  IL-2 signal transduction, HEK-IL-2: 3%

B4: IL-2(L18R/Q22E/R38D/K43E/E61R)/PD-L1(mut2)-Fc/IL-12(E59A/F60A) (Fc fusion)
chain 1: B3 chain 1
chain 2: B1 chain 2
[1]
  IL-2 signal transduction, HEK-IL-2-PD-1: 32%
  IL-12 signal transduction, HEK-IL-12-PD-1: 27%
[2]
  IL-12 signal transduction, HEK-IL-12: 2%
[3]
  IL-2 signal transduction, HEK-IL-2: 3%

B5: PD-L1(mut2)-Fc/IL-12(E59A/F60A) (IL-12 at C' of Fc) (Fc fusion)
chain 1: B3 chain 1
chain 2: FTVTVPKDLYVVEYGSNMTIECKFPVEKQLDLAALQVYWMMEDKNIIQFVHGEEDLKVQHSSYRQRARLLKDQLSLGNAALQITDVKLQDAGVYTCLIAYKGADYKRITVKVNAPYNKINQRILVVDPVTSEHELTCQAEGYPKAEVIWTSSDHQVLSGKTTTTNSKREEKLFNVTSTLRINTTTNEIFYCTFRRLDPEENHTAELVIPELPLAHPPNERGGGGSGGGDKTHTCPPCPAPEKKGGPSVFLFPPKPKDTLMISRTPEVTCVVVDVSHEDPEVKFNWYVDGVEVHNAKTKPREEQYNSTYRVVSVLTVLHQDWLNGKEYKCKVSNKALPAPIEKTISKAKGQPREPQVYVLPPSREEMTKNQVSLLCLVKGFYPSDIAVEWESNGQPENRYMTWPPVLDSDGSFFLYSKLTVDKSRWQQGNVFSCSVMHEALHNHYTQKSLSLSPGK
[1]
  IL-2 signal transduction, HEK-IL-2-PD-1: < 0.1%
  IL-12 signal transduction, HEK-IL-12-PD-1: 25%
[2]
  IL-12 signal transduction, HEK-IL-12: 1%
[3]
  IL-2 signal transduction, HEK-IL-2: < 0.1%
